Experimental data taken from the supplement of paper PMC10567573.

B1: MYBL2 (parent)
chain: FSPSQFLNFWNKQDTLELESPSLT

Variants of: B1
Test: protein stability index of a GFP-peptide fusion (GPS, HEK-293T) (PSI 1-6); higher = more stable
Conditions: c terminus: a fixed tail appended
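Also: lentivirally expressed fusions sorted by FACS into six bins by GFP to DsRed ratio, PSI derived from sequencing read proportions per bin multiplied by bin number.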

Variant	protein stability index
FSPSQFLNFWNKQDTLERESPSLT [L18R]	2.95
FSPSQFLNFWNKQDTLEFESPSLT [L18F]	3.19
FSPSQFLNFWNKQDTLEMESPSLT [L18M]	2.88
FSPSQFLNFWNKQDTLEEESPSLT [L18E]	3.1
FSPSQFLNFWNKQDTLEQESPSLT [L18Q]	3.72
FSPSQFLNFWNKQDTLEHESPSLT [L18H]	1.77
FSPSQFLNFWNKQDTLENESPSLT [L18N]	1.98
FSPSQFLNFWNKQDTLEWESPSLT [L18W]	5.25
FSPSQFLNFWNKQDTLECESPSLT [L18C]	2.55
FSPSQFLNFWNKQDTLEDESPSLT [L18D]	2.79
FSPSQFLNFWNKQDTLEVESPSLT [L18V]	3.28
FSPSQFLNFWNKQDTLEPESPSLT [L18P]	2.1
FSPSQFLNFWNKQDTLEKESPSLT [L18K]	2.98
FSPSQFLNFWNKQDTLEYESPSLT [L18Y]	3.16
FSPSQFLNFWNKQDTLEGESPSLT [L18G]	2.58
FSPSQFLNFWNKQDTLEIESPSLT [L18I]	2.61
FSPSQFLNFWNKQDTLETESPSLT [L18T]	3.04
FSPSQFLNFWNKQDTLESESPSLT [L18S]	1.84
FSPSQFLNFWNKQDTLELEDPSLT [S20D]	2.62
FSPSQFLNFWNKQDTLELEEPSLT [S20E]	1.23
FSPSQFLNFWNKQDTLELECPSLT [S20C]	2.08
FSPSQFLNFWNKQDTLELEIPSLT [S20I]	2.75
FSPSQFLNFWNKQDTLELEQPSLT [S20Q]	3.9
FSPSQFLNFWNKQDTLELEKPSLT [S20K]	2.35

Variant	protein stability index
FSPSQFLNFWNKQDTLELEFPSLT [S20F]	2.57
FSPSQFLNFWNKQDTLELEPPSLT [S20P]	1.65
FSPSQFLNFWNKQDTLELEMPSLT [S20M]	3.66
FSPSQFLNFWNKQDTLELETPSLT [S20T]	2.83
FSPSQFLNFWNKQDTLELERPSLT [S20R]	2.26
FSPSQFLNFWNKQDTLELEVPSLT [S20V]	2.31
FSPSQFLNFWNKQDTLELEGPSLT [S20G]	2.84
FSPSQFLNFWNKQDTLELELPSLT [S20L]	1.89
FSPSQFLNFWNKQDTLELEWPSLT [S20W]	2.37
FSPSQFLNFWNKQDTLELESGSLT [P21G]	3.5
FSPSQFLNFWNKQDTLELESNSLT [P21N]	3.41
FSPSQFLNFWNKQDTLELESQSLT [P21Q]	2.56
FSPSQFLNFWNKQDTLELESESLT [P21E]	2.64
FSPSQFLNFWNKQDTLELESISLT [P21I]	3.74
FSPSQFLNFWNKQDTLELESLSLT [P21L]	3.37
FSPSQFLNFWNKQDTLELESMSLT [P21M]	3.16
FSPSQFLNFWNKQDTLELESFSLT [P21F]	3.56
FSPSQFLNFWNKQDTLELESKSLT [P21K]	3.01
FSPSQFLNFWNKQDTLELESDSLT [P21D]	2.2
FSPSQFLNFWNKQDTLELESCSLT [P21C]	2.77
FSPSQFLNFWNKQDTLVLESPSLT [E17V]	3.59
FSPSQFLNFWNKQDTLPLESPSLT [E17P]	1.74
FSPSQFLNFWNKQDTLWLESPSLT [E17W]	2.71
FSPSQFLNFWNKQDTLQLESPSLT [E17Q]	3.02

Variant	protein stability index
FSPSQFLNFWNKQDTLALESPSLT [E17A]	1.07
FSPSQFLNFWNKQDTLHLESPSLT [E17H]	2.37
FSPSQFLNFWNKQDTLCLESPSLT [E17C]	2.41
FSPSQFLNFWNKQDTLILESPSLT [E17I]	3.94
FSPSQFLNFWNKQDTLLLESPSLT [E17L]	3.9
FSPSQFLNFWNKQDTLMLESPSLT [E17M]	3.58
FSPSQFLNFWNKQDTLYLESPSLT [E17Y]	2.41
FSPSQFLNFWNKQDTLNLESPSLT [E17N]	2.33
FSPSQFLNFWNKQDTLTLESPSLT [E17T]	2.41
FSPSQFLNFWNKQDTLFLESPSLT [E17F]	1.84
FSPSQFLNFWNKQDTLSLESPSLT [E17S]	3.58
FSPSQFLNFWNKQDTLKLESPSLT [E17K]	2.48
FSPSQFLNFWNKQDTLRLESPSLT [E17R]	2.45
FSPSQFLNFWNKQDTLDLESPSLT [E17D]	3.02
FSPSQFLNFWNKQDTLELNSPSLT [E19N]	3.12
FSPSQFLNFWNKQDTLELVSPSLT [E19V]	2.8
FSPSQFLNFWNKQDTLELWSPSLT [E19W]	2.64
FSPSQFLNFWNKQDTLELTSPSLT [E19T]	2.39
FSPSQFLNFWNKQDTLELRSPSLT [E19R]	2.75
FSPSQFLNFWNKQDTLELGSPSLT [E19G]	1.66
FSPSQFLNFWNKQDTLELLSPSLT [E19L]	4.26
FSPSQFLNFWNKQDTLELHSPSLT [E19H]	2.88
FSPSQFLNFWNKQDTLELPSPSLT [E19P]	2.86
FSPSQFLNFWNKQDTLELCSPSLT [E19C]	3.63

Variant	protein stability index
FSPSQFLNFWNKQDTLELSSPSLT [E19S]	2.07
FSPSQFLNFWNKQDTLELYSPSLT [E19Y]	2.11
FSPSQFLNFWNKQDTLELISPSLT [E19I]	2.94
FSPSQFLNFWNKQDTLELFSPSLT [E19F]	2.58
FSPSQFLNFWNKQDTLELDSPSLT [E19D]	3.09
FSPSQFLNFWNKQDTLELASPSLT [E19A]	2.63
FSPSQFLNFWNKQDTHELESPSLT [L16H]	3.68
FSPSQFLNFWNKQDTEELESPSLT [L16E]	1.26
FSPSQFLNFWNKQDTKELESPSLT [L16K]	2.75
FSPSQFLNFWNKQDTGELESPSLT [L16G]	4.14
FSPSQFLNFWNKQDTTELESPSLT [L16T]	1.5
FSPSQFLNFWNKQDTIELESPSLT [L16I]	2.58
FSPSQFLNFWNKQDTSELESPSLT [L16S]	2.5
FSPSQFLNFWNKQDTDELESPSLT [L16D]	3.85
FSPSQFLNFWNKQDTCELESPSLT [L16C]	2.68
FSPSQFLNFWNKQDTQELESPSLT [L16Q]	3.33
FSPSQFLNFWNKQDTMELESPSLT [L16M]	2.56
FSPSQFLNFWNKQDTRELESPSLT [L16R]	4.02
FSPSQFLNFWNKQDTFELESPSLT [L16F]	3.19
FSPSQFLNFWNKQDTPELESPSLT [L16P]	2.29
FSPSQFLNFWNKQDTYELESPSLT [L16Y]	3.49
FSPSQFLNFWNKQDTVELESPSLT [L16V]	2.19
